The source of these data is article PMC2150586 (The Journal of Cell Biology, 1999).

The target in assay [1] is T1, GSTCdc24–MBPFar1 complex, isolated by sequential purification on amylose and glutathione resin (S. cerevisiae, UniProt P11433;P21268).
T1 sequence 1: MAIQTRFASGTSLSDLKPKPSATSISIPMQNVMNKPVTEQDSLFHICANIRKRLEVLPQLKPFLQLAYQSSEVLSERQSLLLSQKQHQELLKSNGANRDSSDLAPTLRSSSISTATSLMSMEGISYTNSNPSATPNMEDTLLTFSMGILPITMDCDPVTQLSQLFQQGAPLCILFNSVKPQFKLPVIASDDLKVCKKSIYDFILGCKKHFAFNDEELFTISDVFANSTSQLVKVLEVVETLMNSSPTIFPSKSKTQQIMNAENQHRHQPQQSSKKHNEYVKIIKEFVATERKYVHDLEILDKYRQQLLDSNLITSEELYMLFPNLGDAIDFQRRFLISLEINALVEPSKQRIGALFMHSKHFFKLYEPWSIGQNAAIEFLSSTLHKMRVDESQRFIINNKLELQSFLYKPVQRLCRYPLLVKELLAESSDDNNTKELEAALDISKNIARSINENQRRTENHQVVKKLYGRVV
T1 sequence 2: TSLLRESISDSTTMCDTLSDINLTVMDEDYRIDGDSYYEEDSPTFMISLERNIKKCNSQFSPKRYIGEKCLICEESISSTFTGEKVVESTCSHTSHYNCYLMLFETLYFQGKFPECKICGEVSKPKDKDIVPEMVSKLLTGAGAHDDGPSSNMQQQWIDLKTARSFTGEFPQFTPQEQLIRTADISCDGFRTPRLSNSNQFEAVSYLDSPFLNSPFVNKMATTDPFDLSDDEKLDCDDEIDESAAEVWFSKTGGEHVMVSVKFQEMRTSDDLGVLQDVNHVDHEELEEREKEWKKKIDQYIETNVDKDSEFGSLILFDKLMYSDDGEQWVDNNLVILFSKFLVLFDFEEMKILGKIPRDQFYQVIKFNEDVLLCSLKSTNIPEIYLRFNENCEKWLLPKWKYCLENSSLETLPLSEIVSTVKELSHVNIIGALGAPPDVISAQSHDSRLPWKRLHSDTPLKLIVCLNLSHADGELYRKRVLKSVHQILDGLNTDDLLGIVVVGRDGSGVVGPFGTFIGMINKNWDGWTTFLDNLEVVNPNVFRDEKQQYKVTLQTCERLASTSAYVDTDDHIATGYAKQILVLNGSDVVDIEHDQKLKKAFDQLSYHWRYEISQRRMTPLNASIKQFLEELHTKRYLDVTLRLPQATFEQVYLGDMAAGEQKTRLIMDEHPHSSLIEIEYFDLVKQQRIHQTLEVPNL
Put plainly: pull-down.

In assay [2] the target is T2, GSTCdc24 (NH2-terminal 472 amino acids of Cdc24p fused to GST) (S. cerevisiae, UniProt P11433 1-472).
T2 sequence: T1 sequence 1
Put plainly: pull-down.

B1: HASte4p purified from yeast (from HASte4-(TEV)-protein A, released with TEV protease) (natural protein)
chain: MAAHQMDSITYSNNVTQQYIQPQSLQDISAVEDEIQNKIEAARQESKQLHAQINKAKHKIQDASLFQMANKVTSLTKNKINLKPNIVLKGHNNKISDFRWSRDSKRILSASQDGFMLIWDSASGLKQNAIPLDSQWVLSCAISPSSTLVASAGLNNNCTIYRVSKENRVAQNVASIFKGHTCYISDIEFTDNAHILTASGDMTCALWDIPKAKRVREYSDHLGDVLALAIPEEPNSENSSNTFASCGSDGYTYIWDSRSPSAVQSFYVNDSDINALRFFKDGMSIVAGSDNGAINMYDLRSDCSIATFSLFRGYEERTPTPTYMAANMEYNTAQSPQTLKSTSSSYLDNQGVVSLDFSASGRLMYSCYTDIGCVVWDVLKGEIVGKLEGHGGRVTGVRSSPDGLAVCTGSWDSTMKIWSPGYQ
In the case of B1, the “fold HASte4p bound against a similar amount of GSTCdc24 alone” value in assay [1] is 2 fold. In assay [2], the “fold increase of HASte4p bound when MBPFar1 is added” value was ~2 fold.
